Article PMC5052687 (2016)

B1: MCvar1 PfEMP1 CIDRα2.8 domain (residues 576-745, C626S) [Plasmodium falciparum] / human CD36 ectodomain (residues 35-439) with C-terminal BAP tag, biotinylated [modified: biotin on the BAP tag (in vitro, BirA ligase); biotin on the BAP tag … (parent complex)
chain 1: EDKIMSYNAFFWMWVHDMLIDSIKWRDEHGRCINKDKGKTCIKGCNKKCISFQKWVEQKKTEWGKIKDHFRKQKDIPKDWTHDDFLQTLLMKDLLLEIIQDTYGDANEIKRIEALLEQAGVGGIDFAALAGLYTKGFVAEKDTTIDKLLQHEQKEADKCLKTHTDDTCPP
chain 2: QKTIKKQVVLEEGTIAFKNWVKTGTEVYRQFWIFDVQNPQEVMMNSSNIQVKQRGPYTYRVRFLAKENVTQDAEDNTVSFLQPNGAIFEPSLSVGTEADNFTVLNLAVAAASHIYQNQFVQMILNSLINKSKSSMFQVRTLRELLWGYRDPFLSLVPYPVTTTVGLFYPYNNTADGVYKVFNGKDNISKVAIIDTYKGKRNLSYWESHCDMINGTDAASFPPFVEKSQVLQFFSSDICRSIYAVFESDVNLKGIPVYRFVLPSKAFASPVENPDNYCFCTEKIISKNCTSYGVLDISKCKEGRPVYISLPHFLYASPDVSEPIDGLNPNEEEHRTYLDIEPITGFTLQFAKRLQVNLLVKPSEKIQVLKNLKRNYIVPILWLNETGTIGDEKANMFRSQVTGKIN

Variants of: B1
Assay: SPR; plateau of the top sensorgram (highest analyte concentration of the series); concentrations not given; parent: 62; read off a plot

Variant	response
chain 1 D75A	~20 RU
